This experiment concerns the target polyketide synthase 16 (Pks16) (Dictyostelium discoideum (endogenous in AX2-214 cells)) (UniProt Q869W9). The experiment is described as follows: cryo-EM structure; shotgun EM of endogenous assemblies in a heterogeneous pool of SEC and mixed-bed IEX fractions of D. discoideum lysate; 50 mM Hepes pH 7.4, 100 mM NaCl, 3 mM MgSO4, 0.1 mM EGTA, 1 mM DTT, 2% glycerol; 200 kV Glacios; proteins identified by MS of the same sample; AlphaFold 3 models fitted into the maps.

Usually stoichiometry N stands for the number of molecules, sites or subunits per partner or assembly. As to “polyketide synthase 16 (Pks16), Q869W9 1-2603”, the stoichiometry N was determined as 2.
